Measured values as given in the supplement of paper PMC10567573.

B1: FAM9B (parent)
chain: EDLTAKRKRMKMDKTCSKTKNKSK

Variants of: B1
Test: protein stability index of a GFP-peptide fusion (GPS, HEK-293T) (PSI 1-6); higher = more stable
Details: c terminus: a fixed tail appended
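Note: lentivirally expressed fusions sorted by FACS into six bins by GFP to DsRed ratio, PSI derived from sequencing read proportions per bin multiplied by bin number.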

| Variant | protein stability index |
| --- | --- |
| EDLTAKRKRMKMDKTCEKTKNKSK | 5.73 |
| EDLTAKRKRMKMDKTCFKTKNKSK | 4.24 |
| EDLTAKRKRMKMDKTCGKTKNKSK | 5.02 |
| EDLTAKRKRMKMDKTCHKTKNKSK | 4.8 |
| EDLTAKRKRMKMDKTCIKTKNKSK | 5.21 |
| EDLTAKRKRMKMDKTCKKTKNKSK | 4.55 |
| EDLTAKRKRMKMDKTCMKTKNKSK | 5.39 |
| EDLTAKRKRMKMDKTCNKTKNKSK | 5.85 |
| EDLTAKRKRMKMDKTCPKTKNKSK | 4.93 |
| EDLTAKRKRMKMDKTCQKTKNKSK | 5.34 |
| EDLTAKRKRMKMDKTCTKTKNKSK | 5.32 |
| EDLTAKRKRMKMDKTCVKTKNKSK | 4.88 |
| EDLTAKRKRMKMDKTCWKTKNKSK | 5.02 |
| EDLTAKRKRMKMDKTCYKTKNKSK | 5.08 |
| EDLTAKRKRMKMDKTCSATKNKSK | 4.86 |
| EDLTAKRKRMKMDKTCSCTKNKSK | 4.96 |
| EDLTAKRKRMKMDKTCSDTKNKSK | 5.07 |
| EDLTAKRKRMKMDKTCSETKNKSK | 5.6 |
| EDLTAKRKRMKMDKTCSFTKNKSK | 3.92 |
| EDLTAKRKRMKMDKTCSGTKNKSK | 4.83 |
| EDLTAKRKRMKMDKTCSHTKNKSK | 5.3 |
| EDLTAKRKRMKMDKTCSITKNKSK | 4.9 |
| EDLTAKRKRMKMDKTCSLTKNKSK | 4.75 |
| EDLTAKRKRMKMDKTCSMTKNKSK | 4.67 |

| Variant | protein stability index |
| --- | --- |
| EDLTAKRKRMKMDKTCSNTKNKSK | 5.18 |
| EDLTAKRKRMKMDKTCSPTKNKSK | 5.87 |
| EDLTAKRKRMKMDKTCSQTKNKSK | 5.57 |
| EDLTAKRKRMKMDKTCSRTKNKSK | 4.81 |
| EDLTAKRKRMKMDKTCSSTKNKSK | 4.78 |
| EDLTAKRKRMKMDKTCSTTKNKSK | 4.89 |
| EDLTAKRKRMKMDKTCSVTKNKSK | 4.75 |
| EDLTAKRKRMKMDKTCSWTKNKSK | 4.35 |
| EDLTAKRKRMKMDKTCSYTKNKSK | 4.59 |
| EDLTAKRKRMKMDKTCSKAKNKSK | 5.16 |
| EDLTAKRKRMKMDKTCSKCKNKSK | 4.99 |
| EDLTAKRKRMKMDKTCSKDKNKSK | 4.97 |
| EDLTAKRKRMKMDKTCSKEKNKSK | 5.74 |
| EDLTAKRKRMKMDKTCSKFKNKSK | 5.29 |
| EDLTAKRKRMKMDKTCSKGKNKSK | 4.94 |
| EDLTAKRKRMKMDKTCSKHKNKSK | 5.02 |
| EDLTAKRKRMKMDKTCSKIKNKSK | 4.9 |
| EDLTAKRKRMKMDKTCSKKKNKSK | 5.17 |
| EDLTAKRKRMKMDKTCSKLKNKSK | 4.94 |
| EDLTAKRKRMKMDKTCSKMKNKSK | 5.15 |
| EDLTAKRKRMKMDKTCSKNKNKSK | 5.1 |
| EDLTAKRKRMKMDKTCSKPKNKSK | 4.89 |
| EDLTAKRKRMKMDKTCSKQKNKSK | 5.08 |
| EDLTAKRKRMKMDKTCSKRKNKSK | 5.26 |

| Variant | protein stability index |
| --- | --- |
| EDLTAKRKRMKMDKTCSKSKNKSK | 5.62 |
| EDLTAKRKRMKMDKTCSKVKNKSK | 4.7 |
| EDLTAKRKRMKMDKTCSKWKNKSK | 4.58 |
| EDLTAKRKRMKMDKTCSKYKNKSK | 4.75 |
| EDLTAKRKRMKMDKTCSKTANKSK | 4.94 |
| EDLTAKRKRMKMDKTCSKTCNKSK | 4.57 |
| EDLTAKRKRMKMDKTCSKTDNKSK | 4.9 |
| EDLTAKRKRMKMDKTCSKTENKSK | 5.07 |
| EDLTAKRKRMKMDKTCSKTFNKSK | 4.46 |
| EDLTAKRKRMKMDKTCSKTGNKSK | 5.06 |
| EDLTAKRKRMKMDKTCSKTHNKSK | 5.24 |
| EDLTAKRKRMKMDKTCSKTINKSK | 4.75 |
| EDLTAKRKRMKMDKTCSKTLNKSK | 4.96 |
| EDLTAKRKRMKMDKTCSKTMNKSK | 4.57 |
| EDLTAKRKRMKMDKTCSKTNNKSK | 4.87 |
| EDLTAKRKRMKMDKTCSKTPNKSK | 4.75 |
| EDLTAKRKRMKMDKTCSKTQNKSK | 5.15 |
| EDLTAKRKRMKMDKTCSKTRNKSK | 4.76 |
| EDLTAKRKRMKMDKTCSKTSNKSK | 4.84 |
| EDLTAKRKRMKMDKTCSKTTNKSK | 5.25 |
| EDLTAKRKRMKMDKTCSKTVNKSK | 4.32 |
| EDLTAKRKRMKMDKTCSKTWNKSK | 4.47 |
| EDLTAKRKRMKMDKTCSKTYNKSK | 4.43 |
| EDLTAKRKRMKMDKTCSKTKAKSK | 5.23 |

| Variant | protein stability index |
| --- | --- |
| EDLTAKRKRMKMDKTCSKTKCKSK | 4.95 |
| EDLTAKRKRMKMDKTCSKTKDKSK | 5.17 |
| EDLTAKRKRMKMDKTCSKTKEKSK | 5.44 |
| EDLTAKRKRMKMDKTCSKTKFKSK | 4.57 |
| EDLTAKRKRMKMDKTCSKTKGKSK | 4.78 |
| EDLTAKRKRMKMDKTCSKTKHKSK | 5 |
| EDLTAKRKRMKMDKTCSKTKIKSK | 4.7 |
| EDLTAKRKRMKMDKTCSKTKKKSK | 5.33 |
| EDLTAKRKRMKMDKTCSKTKLKSK | 4.93 |
| EDLTAKRKRMKMDKTCSKTKMKSK | 4.81 |
| EDLTAKRKRMKMDKTCSKTKPKSK | 4.94 |
| EDLTAKRKRMKMDKTCSKTKQKSK | 5.51 |
| EDLTAKRKRMKMDKTCSKTKRKSK | 5.25 |
| EDLTAKRKRMKMDKTCSKTKSKSK | 5.46 |
| EDLTAKRKRMKMDKTCSKTKTKSK | 5.42 |
| EDLTAKRKRMKMDKTCSKTKVKSK | 4.11 |
| EDLTAKRKRMKMDKTCSKTKWKSK | 4.4 |
| EDLTAKRKRMKMDKTCSKTKYKSK | 4.77 |
| EDLTAKRKRMKMDKTCSKTKNASK | 5.4 |
| EDLTAKRKRMKMDKTCSKTKNCSK | 4.92 |
| EDLTAKRKRMKMDKTCSKTKNDSK | 5.24 |
| EDLTAKRKRMKMDKTCSKTKNESK | 4.96 |
